Paper doi:10.1101/2022.02.27.482175, “Transient DNA binding to gapped DNA substrates links DNA sequence to the single-molecule kinetics of protein-DNA interactions”

Assays:
Details in all cases: protein: recombinant; tags: His6; Alexa647 label; chain copies: 2; label: 5' biotin strand 1; Cy3B on strand 2 (position 13); blunt
[1] = target: T1, CAP (catabolite activator protein), Alexa647-CAP (UniProt P0ACJ8 2-210, H18C;C179S); assay: single-molecule TIRF (koff/kon); 0.2 mM cAMP, 10 mM Mg2+; kon 9.73e6 M-1s-1, t2 8.45 s; 1.5 nM CAP, 0.2 mM cAMP, 40 mM Tris pH 8, 100 mM KCl, 10 mM MgCl2, 5% glycerol, 1 mM TROLOX, glucose oxidase/catalase oxygen scavenger (Methods also lists 40% glucose), 27-30 C
[2] = target: T1, CAP (catabolite activator protein), …; assay: single-molecule TIRF (koff/kon); 0.2 mM cAMP, 10 mM Mg2+; kon 10.24e6 M-1s-1, t2 3.3 s; 1.5 nM CAP, 0.2 mM cAMP, 40 mM Tris pH 8, 100 mM KCl, 10 mM MgCl2, 5% glycerol, 1 mM TROLOX, glucose oxidase/catalase oxygen scavenger (Methods also lists 40% glucose), 27-30 C
[3] = target: T1, CAP (catabolite activator protein), …; assay: single-molecule TIRF (koff/kon); 0.2 mM cAMP, 10 mM Mg2+; kon 8.74e6 M-1s-1, t2 5.2 s; 1.5 nM CAP, 0.2 mM cAMP, 40 mM Tris pH 8, 100 mM KCl, 10 mM MgCl2, 5% glycerol, 1 mM TROLOX, glucose oxidase/catalase oxygen scavenger (Methods also lists 40% glucose), 27-30 C

B1: CAPcons DNA (GSeq-CAP-(1-49)) (dsDNA)
DNA 1: GTGCCTAAAATGTGATCTAGATCACATTTATTGCGTAGAGCTCACTGCC
DNA 2: GGCAGTGAGCTCTACGCAATAAATGTGATCTAGATCACATTTTAGGCAC
B1 gave a Kd [1] of ~12 nM.

B2: CAPmut2 DNA (GP25,CP38) (dsDNA)
DNA 1: GTGCCTAAAATCTGATCTAGATCAGATTTATTGCGTAGAGCTCACTGCC
DNA 2: GGCAGTGAGCTCTACGCAATAAATCTGATCTAGATCAGATTTTAGGCAC
B2 showed a Kd [2] of ~30 nM.

B3: CAPmut1 DNA (GP25/CP25) (dsDNA)
DNA 1: GTGCCTAAAATGTGATCTAGATCAGATTTATTGCGTAGAGCTCACTGCC
DNA 2: GGCAGTGAGCTCTACGCAATAAATCTGATCTAGATCACATTTTAGGCAC
Binder B3 has a Kd [3] of ~22 nM.
